Measured values as given in article doi:10.1101/192484 (bioRxiv, 2018).
Substitutions are numbered along the chain they refer to. Names may count otherwise. Where two headings read alike, the source gives them in different places.

Columns and labels:
SEC-MALS [1] = biological target: the molecule itself; test: SEC-MALS
SEC-MALS [2] = biological target: the molecule itself; test: SEC-MALS; remark: listed apart in the source

B1: ATL3 22-442 WT (soluble domain: GTPase domain, linker and 3HB middle domain) (domain or fragment, human, UniProt Q6DD88 22-442, looked up)
chain: SKPGPVQVVLVQKDQHSFELDEKALASILLQDHIRDLDVVVVSVAGAFRKGKSFILDFMLRYLYSQKESGHSNWLGDPEEPLTGFSWRGGSDPETTGIQIWSEVFTVEKPGGKKVAVVLMDTQGAFDSQSTVKDCATIFALSTMTSSVQIYNLSQNIQEDDLQQLQLFTEYGRLAMDEIFQKPFQTLMFLVRDWSFPYEYSYGLQGGMAFLDKRLQVKEHQHEEIQNVRNHIHSCFSDVTCFLLPHPGLQVATSPDFDGKLKDIAGEFKEQLQALIPYVLNPSKLMEKEINGSKVTCRGLLEYFKAYIKIYQGEDLPHPKSMLQATAEANNLAAAASAKDIYYNNMEEVCGGEKPYLSPDILEEKHCEFKQLALDHFKKTKKMGGKDFSFRYQQELEEEIKELYENFCKHNGSKNVFSTFR
stoichiometry N (SEC-MALS [1]): 2

B2: ATL3 22-442 P338R (domain or fragment, human, UniProt Q6DD88 22-442, looked up)
chain: B1 chain with P317R
stoichiometry N (SEC-MALS [2]): 2

B3: ATL3 22-442 Y192C (domain or fragment, human, UniProt Q6DD88 22-442, looked up)
chain: B1 chain with Y171C
stoichiometry N (SEC-MALS [1]): 2
